Here are results for one substance from publication doi:10.1101/2024.07.21.604498.

For this experiment, the target named is hERG channel with a deleted PAS domain fused to Citrine (S620T) (human) (UniProt Q12809). The experiment is described as follows: FRET or BRET. (In general: In BRET a luciferase serves as donor, and the signal depends on an acceptor being close.)

For the substance “hERG PAS domain fused to CFP (from UniProt Q12809 1-135) (domain or fragment)”, the Ratio A (F436/F500) worked out at 0.37 and the Ratio A-Ratio A0 (proportional to FRET efficiency) was found to be 0.21.
